The values that follow are results of earlier work, collected in publication PMC3076547.

This data set concerns the target Nef (Human immunodeficiency virus 1) (UniProt P04324).

Broadly, the Kd is the constant that tells how readily two partners part at equilibrium. As for Hck SH3 (from UniProt P08631), the Kd was 250 nM.
